{
  "source": "FireProtDB (doi:10.1111/j.1432-1033.1991.tb16033.x)",
  "parents": {"B1": {"name": "Ribonuclease HI, P0A7Y4 (parent)", "chain": "MLKQVEIFTDGSCLGNPGPGGYGAILRYRGREKTFSAGYTRTTNNRMELMAAIVALEALKEHCEVILSTDSQYVRQGITQWIHNWKKRGWKTADKKPVKNVDLWQRLDAALGQHQIKWEWVKGHAGHPENERCDELARAAAMNPTLEDTGYQVEV"}},
  "variants_of": "B1",
  "details": "Escherichia coli (strain K12); pH 5.5; 25 °C; GdnHCl; Fluorescence; Sodium acetate 20 mM; NaCl 0.1 M; reversible: yes; structure 2RN2; whole UniProt chain shown",
  "data": [
    {"variant": "MLKQVEIFTDGSCLGNPGPGGYGAILRYRGREKTFSAGYTRTTNNRMELMAAIVALEALKEACEVILSTDSQYVRQGITQWIHNWKKRGWKTADKKPVKNVDLWQRLDAALGQHQIKWEWVKGHAGHPENERCDELARAAAMNPTLEDTGYQVEV", "note": "[H62A]", "values": [
      {"measurement": "ddG of mutation (higher = less stable)", "result": -0.38, "unit": "kcal/mol"},
      {"measurement": "denaturant m value", "result": 5.19, "unit": "kcal/mol/M"},
      {"measurement": "denaturant midpoint (higher = more stable)", "result": 1.86, "unit": "M"},
      {"measurement": "unfolding free energy", "result": 9.64, "unit": "kcal/mol"}
    ]},
    {"variant": "MLKQVEIFTDGSCLGNPGPGGYGAILRYRGREKTFSAGYTRTTNNRMELMAAIVALEALKEHCEVILSTDSQYVRQGITQWIHNWKKRGWKTADKKPVKNVDLWQRLDAALGQAQIKWEWVKGHAGHPENERCDELARAAAMNPTLEDTGYQVEV", "note": "[H114A]", "values": [
      {"measurement": "ddG of mutation (higher = less stable)", "result": 2.63, "unit": "kcal/mol"},
      {"measurement": "denaturant m value", "result": 4.23, "unit": "kcal/mol/M"},
      {"measurement": "denaturant midpoint (higher = more stable)", "result": 1.57, "unit": "M"},
      {"measurement": "unfolding free energy", "result": 6.63, "unit": "kcal/mol"}
    ]},
    {"variant": "MLKQVEIFTDGSCLGNPGPGGYGAILRYRGREKTFSAGYTRTTNNRMELMAAIVALEALKEHCEVILSTDSQYVRQGITQWIHNWKKRGWKTADKKPVKNVDLWQRLDAALGQHQIKWEWVKGHAGAPENERCDELARAAAMNPTLEDTGYQVEV", "note": "[H127A]", "values": [
      {"measurement": "ddG of mutation (higher = less stable)", "result": 0.58, "unit": "kcal/mol"},
      {"measurement": "denaturant m value", "result": 4.98, "unit": "kcal/mol/M"},
      {"measurement": "denaturant midpoint (higher = more stable)", "result": 1.74, "unit": "M"},
      {"measurement": "unfolding free energy", "result": 8.68, "unit": "kcal/mol"}
    ]},
    {"variant": "MLKQVEIFTDGSCLGNPGPGGYGAILRYRGREKTFSAGYTRTTNNRMELMAAIVALEALKEHCEVILSTDSQYVRQGITQWIHNWKKRGWKTADKKPVKNVDLWQRLDAALGQHQIKWEWVKGAAGHPENERCDELARAAAMNPTLEDTGYQVEV", "note": "[H124A]", "values": [
      {"measurement": "ddG of mutation (higher = less stable)", "result": -0.48, "unit": "kcal/mol"},
      {"measurement": "denaturant m value", "result": 5.36, "unit": "kcal/mol/M"},
      {"measurement": "denaturant midpoint (higher = more stable)", "result": 1.82, "unit": "M"},
      {"measurement": "unfolding free energy", "result": 9.74, "unit": "kcal/mol"}
    ]}
  ]
}
